Results from patent publication US20130177528A1, “COMPOSITIONS AND METHODS FOR INHIBITING VIRAL INFECTION” (WESTERN UNIVERSITY OF HEALTH SCIENCES, priority 2011, published 2013).

Tests used:
Assay type in all cases: cell-based, herpes simplex virus type-1
HSV-1 (KOS) gL86 [1] = assay: HSV-1 entry into gD receptor expressing CHO-K1 cells, cells pre-incubated with CN (Example 8); conditions: for HSV-1 viral entry (β-galactosidase activity, OD 410): 25 pfu/cell, 6 h
Experimental: In this experiment, Chinese hamster ovary (CHO-K1) cells expressing glycoprotein D (gD) receptors: (A) 3-OST-3, (B) herpesvirus entry mediator and (C) nectin-1 were pre-incubated with contortrostatin (CN) at indicated concentrations or mock-treated (positive control [+]) with phosphate saline buffer for 90 min at room temperature. This treatment was followed by infection with β-galactosidase-expressing recombinant virus herpes simplex virus type-1 (HSV-1; KOS) gL86 (25 pfu/cell). Uninfected cells were kept as negative control (−). After 6 h, the cells were washed, permeabilized and incubated with o-nitro-phenyl-β-o-galactopyranoside (ONPG) substrated (3.0 mg/ml) for quantitation of β-galactosidase activity expressed from the input viral genome. The enzymatic activity was measured at an optical density of 410 nm (OD 410). Error bars represent SD. a=significant difference from controls and/or treatments (P<0.05, t-test).
(§1) Viral Entry Assay. Viral entry assays were based on quantitation of β-galactosidase expressed from the viral genome in which β-galactosidase expression is inducible by HSV infection. Cells were transiently transfected in 6-well tissue culture dishes, using Lipofectamine 2000 (In vitrogen Corp) with plasmids expressing HSV-1 entry receptors (necitn-1, HVEM and 3-OST-3 expression plasmids) at 1.5 μg per well in 1 ml. At 24 hr post-transfection, cells were re-plated in 96-well tissue culture dishes (2×10^4 cells per well) at least 16 hr prior to infection. Cells were washed and exposed to serially dilute pre-incubated virus with […] or with 1×PBS at two fold dilutions for 2 hr at room temperature. In a parallel experiment the cells were also pre-incubated with NBE for 2 hr at room temperature before infection with virus. Later the cells were washed with 1×PBS and allowed 6 hr at 37° C. before solubilization in 100 μl of PBS containing 0.5% NP-40 and the -galactosidase substrate, o-nitro-phenyl-D-galactopyranoside (ONPG; ImmunoPure, PIERCE, Rockford, Ill., 3 mg/ml). The enzymatic activity was monitored at 410 nm by spectrophotometry at several time points after the addition of ONPG in order to define the interval over which the generation of the product was linear with time. Microscopy was performed using 20×objective of the microscope (Nikon). The slide book version 3.0 was used for images. All experiments were repeated a minimum of three times.
To determine the effect of CN on HSV-1 entry, we first tested the ability of HSV-1 in the presence and absence of CN to infect CHO-KI cells expressing gD receptors. HSV-1 entry into cells was determined by using β-galactosidase expressing HSV-1 reporter virus (gL86).

HSV-1 (804) strain = assay: HSV-1 plaque assay in HeLa cells (Example 11); conditions: 10 μM, 0.01 PFU/cell, 24 h post-infection
Experimental: (A) In this experiment nectin-1 Chinese hamster ovary (CHO) Ig8 cells that express β-galactosidase upon viral entry were pre-treated with 10 μM contortrostatin (CN; indicated as treated [Tr]) or mock treated (indicated as untreated [Un]) with phosphate saline buffer for 90 min at room temperature followed by infection using clinical isolates of herpes simplex virus type-1 (HSV-1; F,G, and MP at 25 pfu/cell) for 6 h. The viral entry blocking was measured by o-nitro-phenyl-β-o-galactopyranoside (ONPG) assay as previously described. Error bars represent SD. (B) Confluent monolayers of HeLa cells were infected with HSV-1 (804) strain at 0.01 PFU/cell in presence (panel i) and absence (panel ii) of CN for 2 h at 37° C. Viral replication in HeLa cells were visualized 24 h post-infection for plaques. a=significant differences from corresponding mock-treated controls (P<0.05, t-test).
Viral plaque assay. Confluent layers of RPE cells in glass bottom dishes were infected with CMV Ad169 strain in the presence and absence of CN at 0.01 PFU per cell for 2 hrs. This was followed by extensive but gentle washing three times with DMEM media followed by feeding cells with DMEM media. The cells were then incubated at 37° C. for thee days. […] The number of plaques formed were then visualized and quantified as indicated. […] The cells were again washed 5× in PBS and the numbers of plaques were counted. […]

HSV-1 (KOS) gL86 [2] = assay: HSV-1 entry into CHO-K1 cells expressing gD receptors, virus pre-incubated with CN (Example 2); conditions: virus 30 pfu/cell pre-incubated 90 min, read after 6 hr
Experimental: as §1
CN blocks herpes simplex virus type-1 (HSV-1) entry into CHO-K1 cells expressing gD receptors. […] After 6 hr at 37° C., the cells were washed, permeabilized with 100 μl of PBS containing 0.5% NP-40 and incubated with ONPG substrate (3.0 mg/ml) for quantitation of β-galactosidase activity expressed from the input viral genome. The enzymatic activity was measured at an optical density of 410 nm (OD 410).

B1: contortrostatin (protein)
chain: DAPANPCCDAATCKLTTGSQCADGLCCDQCKFMKEGTVCRRARGDDLDDYCNGISAGCPRNPFHA
HSV-1 viral entry (β-galactosidase activity, OD 410) (HSV-1 (KOS) gL86 [1]; CHO-K1 cells expressing 3-OST-3 pre-incubated 90 min): significantly blocked viral emry in a dose-dependent manner
HSV-1 viral entry (β-galactosidase activity, OD 410) (HSV-1 (KOS) gL86 [1]; CHO-K1 cells expressing HVEM pre-incubated 90 min): significantly blocked viral emry in a dose-dependent manner
HSV-1 viral entry (β-galactosidase activity, OD 410) (HSV-1 (KOS) gL86 [1]; CHO-K1 cells expressing nectin-1 pre-incubated 90 min): significantly blocked viral emry in a dose-dependent manner
concentrations at which entry blocking activity was pronounced (HSV-1 (KOS) gL86 [1]; gD-receptor expressing CHO-K1 cells): micromolar concentrations
HSV-1 plaque formation (HSV-1 (804) strain): blocked the plaque formation
HSV-1 viral entry (β-galactosidase activity, OD 410) (HSV-1 (KOS) gL86 [2]; CHO-K1 cells expressing 3-OST-3): blocked viral entry
HSV-1 viral entry (β-galactosidase activity, OD 410) (HSV-1 (KOS) gL86 [2]; CHO-K1 cells expressing HVEM): blocked viral entry
HSV-1 viral entry (β-galactosidase activity, OD 410) (HSV-1 (KOS) gL86 [2]; CHO-K1 cells expressing nectin-1): blocked viral entry
